Results on four molecules are retold here after publication PMC7367873, “Dissecting the sequence determinants for dephosphorylation by the catalytic subunits of phosphatases PP1 and PP2A” (Nature Communications, 2020).

The test system of assay [1] is GFP-14-3-3β and its binding proteins. The experiment in a line: GFP-14-3-3β co-IP with LC-MS/MS label-free quantification, untreated versus PP1c-treated. More on the design: species or system human. The following applies: GFP-14-3-3β co-IP LC-MS/MS; PP1 vs untreated; student's t-test; label-free quantification, 3 replicates each.
For another assay, the system named is GFP-14-3-3β. The experiment in a line: GFP-14-3-3β co-IP with LC-MS/MS, untreated GFP-14-3-3β versus GFP control (14-3-3 interactome). It counts as binding, human. The following applies: GFP-14-3-3β co-IP LC-MS/MS; untreated vs GFP; student's t-test; label-free quantification, 3 replicates each.

B1: COBL (protein, UniProt O75128 1-1261, looked up)
Protein cordon-bleu: MDAPRASAAKPPTGRKMKARAPPPPGKAATLHVHSDQKPPHDGALGSQQNLVRMKEALRASTMDVTVVLPSGLEKRSVLNGSHAMMDLLVELCLQNHLNPSHHALEIRSSETQQPLSFKPNTLIGTLNVHTVFLKEKVPEEKVKPGPPKVPEKSVRLVVNYLRTQKAVVRVSPEVPLQNILPVICAKCEVSPEHVVLLRDNIAGEELELSKSLNELGIKELYAWDNRRETFRKSSLGNDETDKEKKKFLGFFKVNKRSNSKGCLTTPNSPSMHSRSLTLGPSLSLGSISGVSVKSEMKKRRAPPPPGSGPPVQDKASEKVSLGSQIDLQKKKRRAPAPPPPQPPPPSPLIPNRTEDKEENRKSTMVSLPLGSGSHCSPDGAPQVLSEAEETVSVGSCFASEDTTEDSGVMSSPSDIVSLDSQQDSMKYKDKWATDQEDCSDQDLAGTPDLGPQKSPLWEKNGSENSHLRTEKAVTASNDEEDLLIAGEFRKTLAELDEDLEEMEDSYETDTSSLTSSIHGASNHCPQDAMIPHGDTDAIPVTFIGEVSDDPVDSGLFSNRNNNAGSFDSEGVASRRDSLAPLQAEHSQPHEKAREEVPALHPASHDVGKGIRVALSNISKDGNLMETAPRVTSFASNLHTDNLNAKVKDKVYGCADGERTQATERVNSQPVNEKDSNDKNAALAPTSWHQRGQNPGKSYRLKHGLTTYKIIPPKSEMRCYDRDVSLSTGAIKIDELGNLVSPHATGIRIISLSSSVPEAESQPIGKVREFWRCNSVEKHLGRPSESSARGPPSTPVPTQTQNPESRLQADPKPISPQQKSAHHEGRNPLGEGRNQPPTMGMGHVRVPAAHTTEVTFLKPQRRTSSQYVASAIAKRIGAPKVHADVVRPHGYAEKGYAGKAPVLAAPPVTVKDDRTSSPHSETQGWKDGAQWPCVTPPNNHGEDLAVGAPPRGEVIGPHRKLSTQDRPAAIHRSSCFSLVQSSQRDRVSVGQSCGFSGKQSTSSQEASSASEPRRAPDGTDPPPPHTSDTQACSRELVNGSVRAPGHGEPSHPPGGSGTESHILLEREEKPSVFSTDGNETDSIWPPSIFGPKKKFKPVVQRPVPKDTSLHSALMEAIHSAGGKDRLRKTAEHTGEGRPAKLSYTEAEGERSALLAAIRGHSGTCSLRKVASSASEELQSFRDAALSAQGSESPLLEDLGLLSPPAIPPPPPPPSQALSAPRTASRFSTGTLSNTADARQALMDAIRSGTGAARLRKVPLLV
Turning to B1, the “Difference (log2), PP1 vs untreated” value in assay [1] was -0.2795 log2. Besides, in the assay on GFP-14-3-3β, the “Difference (log2), untreated vs GFP” value was -0.6052 log2.

B2: XPOT (protein, UniProt O43592 1-962, looked up)
Exportin-T: MDEQALLGLNPNADSDFRQRALAYFEQLKISPDAWQVCAEALAQRTYSDDHVKFFCFQVLEHQVKYKYSELTTVQQQLIRETLISWLQAQMLNPQPEKTFIRNKAAQVFALLFVTEYLTKWPKFFFDILSVVDLNPRGVDLYLRILMAIDSELVDRDVVHTSEEARRNTLIKDTMREQCIPNLVESWYQILQNYQFTNSEVTCQCLEVVGAYVSWIDLSLIANDRFINMLLGHMSIEVLREEACDCLFEVVNKGMDPVDKMKLVESLCQVLQSAGFFSIDQEEDVDFLARFSKLVNGMGQSLIVSWSKLIKNGDIKNAQEALQAIETKVALMLQLLIHEDDDISSNIIGFCYDYLHILKQLTVLSDQQKANVEAIMLAVMKKLTYDEEYNFENEGEDEAMFVEYRKQLKLLLDRLAQVSPELLLASVRRVFSSTLQNWQTTRFMEVEVAIRLLYMLAEALPVSHGAHFSGDVSKASALQDMMRTLVTSGVSSYQHTSVTLEFFETVVRYEKFFTVEPQHIPCVLMAFLDHRGLRHSSAKVRSRTAYLFSRFVKSLNKQMNPFIEDILNRIQDLLELSPPENGHQSLLSSDDQLFIYETAGVLIVNSEYPAERKQALMRNLLTPLMEKFKILLEKLMLAQDEERQASLADCLNHAVGFASRTSKAFSNKQTVKQCGCSEVYLDCLQTFLPALSCPLQKDILRSGVRTFLHRMIICLEEEVLPFIPSASEHMLKDCEAKDLQEFIPLINQITAKFKIQVSPFLQQMFMPLLHAIFEVLLRPAEENDQSAALEKQMLRRSYFAFLQTVTGSGMSEVIANQGAENVERVLVTVIQGAVEYPDPIAQKTCFIILSKLVELWGGKDGPVGFADFVYKHIVPACFLAPLKQTFDLADAQTVLALSECAVTLKTIHLKRGPECVQYLQQEYLPSLQVAPEIIQEFCQALQQPDAKVFKNYLKVFFQRAKP
On to B2, for which, in assay [1], the “Difference (log2), PP1 vs untreated” value is -0.251 log2. Further, in the assay on GFP-14-3-3β, the “Difference (log2), untreated vs GFP” value was 1.37 log2.

B3: HNRNPR (protein, UniProt O43390 2-633, looked up)
Heterogeneous nuclear …: ANQVNGNAVQLKEEEEPMDTSSVTHTEHYKTLIEAGLPQKVAERLDEIFQTGLVAYVDLDERAIDALREFNEEGALSVLQQFKESDLSHVQNKSAFLCGVMKTYRQREKQGSKVQESTKGPDEAKIKALLERTGYTLDVTTGQRKYGGPPPDSVYSGVQPGIGTEVFVGKIPRDLYEDELVPLFEKAGPIWDLRLMMDPLSGQNRGYAFITFCGKEAAQEAVKLCDSYEIRPGKHLGVCISVANNRLFVGSIPKNKTKENILEEFSKVTEGLVDVILYHQPDDKKKNRGFCFLEYEDHKSAAQARRRLMSGKVKVWGNVVTVEWADPVEEPDPEVMAKVKVLFVRNLATTVTEEILEKSFSEFGKLERVKKLKDYAFVHFEDRGAAVKAMDEMNGKEIEGEEIEIVLAKPPDKKRKERQAARQASRSTAYEDYYYHPPPRMPPPIRGRGRGGGRGGYGYPPDYYGYEDYYDDYYGYDYHDYRGGYEDPYYGYDDGYAVRGRGGGRGGRGAPPPPRGRGAPPPRGRAGYSQRGAPLGPPRGSRGGRGGPAQQQRGRGSRGSRGNRGGNVGGKRKADGYNQPDSKRRQTNNQQNWGSQPIAQQPLQQGGDYSGNYGYNNDNQEFYQDTYGQQWK
For B3, the “Difference (log2), PP1 vs untreated” value in assay [1] is listed as -0.2799 log2. In the assay with GFP-14-3-3β, the “Difference (log2), untreated vs GFP” value was 0.8033 log2.

B4: CANX (protein, UniProt P27824 21-592, looked up)
Calnexin: HDGHDDDVIDIEDDLDDVIEEVEDSKPDTTAPPSSPKVTYKAPVPTGEVYFADSFDRGTLSGWILSKAKKDDTDDEIAKYDGKWEVEEMKESKLPGDKGLVLMSRAKHHAISAKLNKPFLFDTKPLIVQYEVNFQNGIECGGAYVKLLSKTPELNLDQFHDKTPYTIMFGPDKCGEDYKLHFIFRHKNPKTGIYEEKHAKRPDADLKTYFTDKKTHLYTLILNPDNSFEILVDQSVVNSGNLLNDMTPPVNPSREIEDPEDRKPEDWDERPKIPDPEAVKPDDWDEDAPAKIPDEEATKPEGWLDDEPEYVPDPDAEKPEDWDEDMDGEWEAPQIANPRCESAPGCGVWQRPVIDNPNYKGKWKPPMIDNPSYQGIWKPRKIPNPDFFEDLEPFRMTPFSAIGLELWSMTSDIFFDNFIICADRRIVDDWANDGWGLKKAADGAAEPGVVGQMIEAAEERPWLWVVYILTVALPVFLVILFCCSGKKQTSGMEYKKTDAPQPDVKEEEEEKEEEKDKGDEEEEGEEKLEEKQKSDAEEDGGTVSQEEEDRKPKAEEDEILNRSPRNRKPRRE
As to B4, the “Difference (log2), PP1 vs untreated” value in assay [1] is -0.251 log2. The “Difference (log2), untreated vs GFP” value in the assay with GFP-14-3-3β is recorded as 0.347 log2.
